According to paper PMC6513753 (Nature chemical biology, 2018):

Biological target: the molecule itself
Test: crystal structure

B1: nepetalactol-related short-chain dehydrogenase/reductase 3 (NEPS3) from Nepeta mussinii (enzyme)
chain: MANNSVMMKKKLEGKVAIVTGGASGIGEATARLFVKYGARAVVIADIQSELGRSVAESIGKERCSFVQCDVADEEQVKSMIEWTATTYGGLDVMFSNAGVLNSAAQTVKDLDLPLFDKVMRVNTRGAAVCVKQAARKMVELGRGGSIICNAGSSAVRGAHGVTDYVMSKHAVIGLVRSASMQLGAHSIRVNSVSPMAVATPLTRNQGISTPDDVQKFLMPFISLKGVPPTAEQVAEAAAFLGSDEAAFVTGHDLPVDGGVLCMPFLLGSA
stoichiometry N: 4
